What was measured:
[1] = molecular target: T1, CEACAM1-Fc soluble receptor construct (human, UniProt P13688 35-320); assay: assay not named
T1 construct: also called CC1-Fc; human CEACAM1-Fc; not shown: Fc part, detected with goat anti-human Fc antibodies
T1 sequence: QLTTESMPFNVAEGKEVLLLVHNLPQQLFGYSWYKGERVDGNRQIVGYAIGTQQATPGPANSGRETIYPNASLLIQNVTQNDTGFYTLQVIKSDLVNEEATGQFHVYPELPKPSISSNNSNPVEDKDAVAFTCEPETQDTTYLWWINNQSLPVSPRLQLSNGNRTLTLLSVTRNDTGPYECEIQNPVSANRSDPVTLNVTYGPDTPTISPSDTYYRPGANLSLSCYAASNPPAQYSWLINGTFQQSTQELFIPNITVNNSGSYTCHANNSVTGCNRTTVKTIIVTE

CD33-Fc [2] = molecular target: T2, CD33-Fc (UniProt P20138 18-259); assay: dot blot overlay of whole bacteria with soluble receptor
T2 construct: Negative control construct; not shown: Fc part, detected with goat anti-human Fc antibodies
T2 sequence (P20138 18-259 limits assumed): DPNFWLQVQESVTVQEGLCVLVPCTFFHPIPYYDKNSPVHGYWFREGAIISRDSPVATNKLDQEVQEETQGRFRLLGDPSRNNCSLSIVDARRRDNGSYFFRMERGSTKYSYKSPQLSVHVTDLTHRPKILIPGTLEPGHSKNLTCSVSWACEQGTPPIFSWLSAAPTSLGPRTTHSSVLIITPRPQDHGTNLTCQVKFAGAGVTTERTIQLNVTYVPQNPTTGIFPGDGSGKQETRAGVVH

CD33-Fc [3] = molecular target: T2, CD33-Fc; assay: blot overlay
[4] = molecular target: T1, CEACAM1-Fc soluble receptor construct; assay: Western blot overlay with CEACAM1-Fc

B1: peptide D-8 with deletion of the region 571-632 (D-8Δ) (peptide)
chain: ASSANTDRIATAELGIAENKKDAQIAKAQANENKDGIAKNQADIIKTLAKVSAANTDRIAKNKAEADASFETLTKNQNTLIEQGEALVEQNKAINQELEGFAAHADVQDKQILQNQADITTNKTAIEQNINRTVANGFEIEKNKAGIATNKQELILQNDRLNRINETNNHQDQKIDQLGYALKEQGQHFNNRISAVERQTAGGIANAIAIATLPSPSRAGEHHVLFGSGYHNGQAAVSLGAAGLSDTGKSTYKIGLSWSDAGGLSGGVGGSYRWK
notes: Outer limits as deduced for D-8 (527-863); the deletion 571-632 is printed; also called control peptide; not shown: His tag from the pQE30 vector
binding result [1]: no binding

B2: N-terminal recombinant MX2 peptide consisting of amino acids 1 to 449 (peptide)
chain: MNKIYKVKKNAAGHLVACSEFAKGHTKKAVLGSLLIVGILGMATTASAQKVGKATNKISGGDNNTANGTYLTIGGGDYNKTKGRYSTIGGGLFNEATNEYSTIGSGGYNKAKGRYSTIGGGGYNEATNQYSTIGGGDNNTAKGRYSTIGGGGYNEATIENSTVGGGGYNQAKGRNSTVAGGYNNEATGTDSTIAGGRKNQATGKGSFAAGIDNKANADNAVALGNKNTIEGENSVAIGSNNTVKKGQQNVFILGSNTDTTNAQNGSVLLGHNTAGKAATIVNSAEVGGLSLTGFAGASKTGNGTVSVGKKGKERQIVHVGAGEISDTSTDAVNGSQLHALATVVAQNKADIKDLDDEVGLLGEEINSLEGEIFNNQDAIAKNQADIKTLESNVEEGLLDLSGRLIDQKADIDNNINNIYELAQQQDQHSSDIKTLKNNVEEGLLDLSGR
binding result [1]: no binding

B3: UspA1 protein of Moraxella catarrhalis strain MX2 (ATCC 25238) (ligand)
chain: QKVGKATNKISGGDNNTANGTYLTIGGGDYNKTKGRYSTIGGGLFNEATNEYSTIGSGGYNKAKGRYSTIGGGGYNEATNQYSTIGGGDNNTAKGRYSTIGGGGYNEATIENSTVGGGGYNQAKGRNSTVAGGYNNEATGTDSTIAGGRKNQATGKGSFAAGIDNKANADNAVALGNKNTIEGENSVAIGSNNTVKKGQQNVFILGSNTDTTNAQNGSVLLGHNTAGKAATIVNSAEVGGLSLTGFAGASKTGNGTVSVGKKGKERQIVHVGAGEISDTSTDAVNGSQLHALATVVAQNKADIKDLDDEVGLLGEEINSLEGEIFNNQDAIAKNQADIKTLESNVEEGLLDLSGRLIDQKADIDNNINNIYELAQQQDQHSSDIKTLKNNVEEGLLDLSGRLIDQKADLTKDIKALESNVEEGLLDLSGRLIDQKADIAKNQADIAQNQTDIQDLAAYNELQDAYAKQQTEAIDALNKASSANTDRIATAELGIAENKKDAQIAKAQANENKDGIAKNQADIQLHDKKITNLGILHSMVARAVGNNTQGVATNKADIAKNQADIANNIKNIYELAQQQDQHSSDIKTLAKVSAANTDRIAKNKAEADASFETLTKNQNTLIEQGEALVEQNKAINQELEGFAAHADVQDKQILQNQADITTNKTAIEQNINRTVANGFEIEKNKAGIATNKQELILQNDRLNRINETNNHQDQKIDQLGYALKEQGQHFNNRISAVERQTAGGIANAIAIATLPSPSRAGEHHVLFGSGYHNGQAAVSLGAAGLSDTGKSTYKIGLSWSDAGGLSGGVGGSYRWK
notes: Tested on whole bacteria or in whole cell lysates; migrates at >200 kDa unheated and at circa 92 kDa after boiling; also called MX2 UspA1
binding result (CD33-Fc [2]): no binding (tested: 1-2 µg ml^-1)

B4: recombinant UspA1 fragment D-8 (peptide)
chain: ASSANTDRIATAELGIAENKKDAQIAKAQANENKDGIAKNQADIQLHDKKITNLGILHSMVARAVGNNTQGVATNKADIAKNQADIANNIKNIYELAQQQDQHSSDIKTLAKVSAANTDRIAKNKAEADASFETLTKNQNTLIEQGEALVEQNKAINQELEGFAAHADVQDKQILQNQADITTNKTAIEQNINRTVANGFEIEKNKAGIATNKQELILQNDRLNRINETNNHQDQKIDQLGYALKEQGQHFNNRISAVERQTAGGIANAIAIATLPSPSRAGEHHVLFGSGYHNGQAAVSLGAAGLSDTGKSTYKIGLSWSDAGGLSGGVGGSYRWK
notes: Limits deduced: D = 527 (see D-7), 8 = 863 (from 6-8, E659-K863); also called D-8 polypeptide; not shown: His tag from the pQE30 vector
binding result (CD33-Fc [3]): no binding

B5: recombinant UspA1 fragment 6-8 (residues E659-K863 of UspA1 of MX2) (peptide)
chain: ETLTKNQNTLIEQGEALVEQNKAINQELEGFAAHADVQDKQILQNQADITTNKTAIEQNINRTVANGFEIEKNKAGIATNKQELILQNDRLNRINETNNHQDQKIDQLGYALKEQGQHFNNRISAVERQTAGGIANAIAIATLPSPSRAGEHHVLFGSGYHNGQAAVSLGAAGLSDTGKSTYKIGLSWSDAGGLSGGVGGSYRWK
notes: also called P6-P8; not shown: His tag from the pQE30 vector
binding result [4]: no binding

Reference: patent US20100168002A1 (UNIVERSITY OF BRISTOL, published 2010)
